First the molecules themselves.
B1: THAP1; numbered along this chain (parent)
chain: MVQSCSAYGCKNRYDKDKPVSFHKFPLTRPSLCKEWEAAVRRKNFKPTKYSSICSEHFTPDCFKRECNNKLLKENAVPTIFLCTEPHDKKEDLLEPQEQLPPPPLPPPVSQVDAAIGLLMPPLQTPVNLSVFCDHNYTVEDTMHQRKRIHQLEQQVEKLRKKLKTAQQRCRRQERQLEKLKEVVHFQKEKDDVSERGYVILPNDYFEIVEVPA

In this data set the parent is B1. The experiment in a line: THAP1 transcriptional activity (GFP+/GFP- enrichment relative to wild-type constructs) (ratio to WT); higher = more THAP1 activity (PSMB5 reporter activation). The following applies: with PSMB5 promoter-GFP reporter. The gist of the method:
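In duplicate, a lentivirus-delivered library with every residue from 2–213 of human THAP1 changed to all 20 amino acids was introduced at MOI ~0.3 into THAP1-knockout HEK-293T cells carrying endogenous PSMB5 tagged by mClover3 knock-in. Five days on, BFP+ cells were binned as GFP-dim or GFP-bright, and Illumina sequencing of genomic DNA amplicons counted each variant. Activity is the bright/dim read fold change, averaged over replicates and scaled to the mean of wild-type synonymous constructs.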
On to MVQSCSAYGCKNRYDKDKPVSFHKFPLTRPSLCKEWEAAVRRKNFKPTKYSSICSEHFTPDCFKRECNNKLLKENAVPTIFLCTEPHDKKEDLLEPQEQLPPPPLPPPVSQVDAAIGLLMPPLQTPVNLSVFCNHNYTVEDTMHQRKRIHQLEQQVEKLRKKLKTAQQRCRRQERQLEKLKEVVHFQKEKDDVSERGYVILPNDYFEIVEVPA [D134N], for which the THAP1 transcriptional activity stood at 0.121. Under MVQSCSAYGCKNRYDKDKPVSFHKFPLTRPSLCKEWEAAVRRKNFKPTKYSSICSEHFTPDCFKRECNNKLLKENAVPTIFLCTEPHDKKEDLLEPQEQLPPPPLPPPVSQVDAAIGLLMPPLQTPVNLSVFCKHNYTVEDTMHQRKRIHQLEQQVEKLRKKLKTAQQRCRRQERQLEKLKEVVHFQKEKDDVSERGYVILPNDYFEIVEVPA [D134K] stands 0.141. For MVQSCSAYGCKNRYDKDKPVSFHKFPLTRPSLCKEWEAAVRRKNFKPTKYSSICSEHFTPDCFKRECNNKLLKENAVPTIFLCTEPHDKKEDLLEPQEQLPPPPLPPPVSQVDAAIGLLMPPLQTPVNLSVFCPHNYTVEDTMHQRKRIHQLEQQVEKLRKKLKTAQQRCRRQERQLEKLKEVVHFQKEKDDVSERGYVILPNDYFEIVEVPA [D134P], the THAP1 transcriptional activity was determined as 0.296. Then MVQSCSAYGCKNRYDKDKPVSFHKFPLTRPSLCKEWEAAVRRKNFKPTKYSSICSEHFTPDCFKRECNNKLLKENAVPTIFLCTEPHDKKEDLLEPQEQLPPPPLPPPVSQVDAAIGLLMPPLQTPVNLSVFCSHNYTVEDTMHQRKRIHQLEQQVEKLRKKLKTAQQRCRRQERQLEKLKEVVHFQKEKDDVSERGYVILPNDYFEIVEVPA [D134S], with 0.277.

On to MVQSCSAYGCKNRYDKDKPVSFHKFPLTRPSLCKEWEAAVRRKNFKPTKYSSICSEHFTPDCFKRECNNKLLKENAVPTIFLCTEPHDKKEDLLEPQEQLPPPPLPPPVSQVDAAIGLLMPPLQTPVNLSVFCMHNYTVEDTMHQRKRIHQLEQQVEKLRKKLKTAQQRCRRQERQLEKLKEVVHFQKEKDDVSERGYVILPNDYFEIVEVPA [D134M], for which the THAP1 transcriptional activity was determined as 0.159. Then MVQSCSAYGCKNRYDKDKPVSFHKFPLTRPSLCKEWEAAVRRKNFKPTKYSSICSEHFTPDCFKRECNNKLLKENAVPTIFLCTEPHDKKEDLLEPQEQLPPPPLPPPVSQVDAAIGLLMPPLQTPVNLSVFCIHNYTVEDTMHQRKRIHQLEQQVEKLRKKLKTAQQRCRRQERQLEKLKEVVHFQKEKDDVSERGYVILPNDYFEIVEVPA [D134I], with 0.153. Under MVQSCSAYGCKNRYDKDKPVSFHKFPLTRPSLCKEWEAAVRRKNFKPTKYSSICSEHFTPDCFKRECNNKLLKENAVPTIFLCTEPHDKKEDLLEPQEQLPPPPLPPPVSQVDAAIGLLMPPLQTPVNLSVFCGHNYTVEDTMHQRKRIHQLEQQVEKLRKKLKTAQQRCRRQERQLEKLKEVVHFQKEKDDVSERGYVILPNDYFEIVEVPA [D134G] stands 0.148; under MVQSCSAYGCKNRYDKDKPVSFHKFPLTRPSLCKEWEAAVRRKNFKPTKYSSICSEHFTPDCFKRECNNKLLKENAVPTIFLCTEPHDKKEDLLEPQEQLPPPPLPPPVSQVDAAIGLLMPPLQTPVNLSVFCRHNYTVEDTMHQRKRIHQLEQQVEKLRKKLKTAQQRCRRQERQLEKLKEVVHFQKEKDDVSERGYVILPNDYFEIVEVPA [D134R], 0.265. Turning to MVQSCSAYGCKNRYDKDKPVSFHKFPLTRPSLCKEWEAAVRRKNFKPTKYSSICSEHFTPDCFKRECNNKLLKENAVPTIFLCTEPHDKKEDLLEPQEQLPPPPLPPPVSQVDAAIGLLMPPLQTPVNLSVFCWHNYTVEDTMHQRKRIHQLEQQVEKLRKKLKTAQQRCRRQERQLEKLKEVVHFQKEKDDVSERGYVILPNDYFEIVEVPA [D134W], the THAP1 transcriptional activity turned out to be 0.177. Regarding MVQSCSAYGCKNRYDKDKPVSFHKFPLTRPSLCKEWEAAVRRKNFKPTKYSSICSEHFTPDCFKRECNNKLLKENAVPTIFLCTEPHDKKEDLLEPQEQLPPPPLPPPVSQVDAAIGLLMPPLQTPVNLSVFCTHNYTVEDTMHQRKRIHQLEQQVEKLRKKLKTAQQRCRRQERQLEKLKEVVHFQKEKDDVSERGYVILPNDYFEIVEVPA [D134T], the THAP1 transcriptional activity came to 0.354. As for MVQSCSAYGCKNRYDKDKPVSFHKFPLTRPSLCKEWEAAVRRKNFKPTKYSSICSEHFTPDCFKRECNNKLLKENAVPTIFLCTEPHDKKEDLLEPQEQLPPPPLPPPVSQVDAAIGLLMPPLQTPVNLSVFCVHNYTVEDTMHQRKRIHQLEQQVEKLRKKLKTAQQRCRRQERQLEKLKEVVHFQKEKDDVSERGYVILPNDYFEIVEVPA [D134V], the THAP1 transcriptional activity was determined as 0.123. As to MVQSCSAYGCKNRYDKDKPVSFHKFPLTRPSLCKEWEAAVRRKNFKPTKYSSICSEHFTPDCFKRECNNKLLKENAVPTIFLCTEPHDKKEDLLEPQEQLPPPPLPPPVSQVDAAIGLLMPPLQTPVNLSVFCFHNYTVEDTMHQRKRIHQLEQQVEKLRKKLKTAQQRCRRQERQLEKLKEVVHFQKEKDDVSERGYVILPNDYFEIVEVPA [D134F], the THAP1 transcriptional activity came out at 0.144. Then MVQSCSAYGCKNRYDKDKPVSFHKFPLTRPSLCKEWEAAVRRKNFKPTKYSSICSEHFTPDCFKRECNNKLLKENAVPTIFLCTEPHDKKEDLLEPQEQLPPPPLPPPVSQVDAAIGLLMPPLQTPVNLSVFCHHNYTVEDTMHQRKRIHQLEQQVEKLRKKLKTAQQRCRRQERQLEKLKEVVHFQKEKDDVSERGYVILPNDYFEIVEVPA [D134H], with 0.203; and MVQSCSAYGCKNRYDKDKPVSFHKFPLTRPSLCKEWEAAVRRKNFKPTKYSSICSEHFTPDCFKRECNNKLLKENAVPTIFLCTEPHDKKEDLLEPQEQLPPPPLPPPVSQVDAAIGLLMPPLQTPVNLSVFCQHNYTVEDTMHQRKRIHQLEQQVEKLRKKLKTAQQRCRRQERQLEKLKEVVHFQKEKDDVSERGYVILPNDYFEIVEVPA [D134Q], with 0.0618; and MVQSCSAYGCKNRYDKDKPVSFHKFPLTRPSLCKEWEAAVRRKNFKPTKYSSICSEHFTPDCFKRECNNKLLKENAVPTIFLCTEPHDKKEDLLEPQEQLPPPPLPPPVSQVDAAIGLLMPPLQTPVNLSVFCYHNYTVEDTMHQRKRIHQLEQQVEKLRKKLKTAQQRCRRQERQLEKLKEVVHFQKEKDDVSERGYVILPNDYFEIVEVPA [D134Y], with 0.166. In the case of MVQSCSAYGCKNRYDKDKPVSFHKFPLTRPSLCKEWEAAVRRKNFKPTKYSSICSEHFTPDCFKRECNNKLLKENAVPTIFLCTEPHDKKEDLLEPQEQLPPPPLPPPVSQVDAAIGLLMPPLQTPVNLSVFCDQNYTVEDTMHQRKRIHQLEQQVEKLRKKLKTAQQRCRRQERQLEKLKEVVHFQKEKDDVSERGYVILPNDYFEIVEVPA [H135Q], the THAP1 transcriptional activity was 0.151. Then MVQSCSAYGCKNRYDKDKPVSFHKFPLTRPSLCKEWEAAVRRKNFKPTKYSSICSEHFTPDCFKRECNNKLLKENAVPTIFLCTEPHDKKEDLLEPQEQLPPPPLPPPVSQVDAAIGLLMPPLQTPVNLSVFCDANYTVEDTMHQRKRIHQLEQQVEKLRKKLKTAQQRCRRQERQLEKLKEVVHFQKEKDDVSERGYVILPNDYFEIVEVPA [H135A], with 0.145; and MVQSCSAYGCKNRYDKDKPVSFHKFPLTRPSLCKEWEAAVRRKNFKPTKYSSICSEHFTPDCFKRECNNKLLKENAVPTIFLCTEPHDKKEDLLEPQEQLPPPPLPPPVSQVDAAIGLLMPPLQTPVNLSVFCDGNYTVEDTMHQRKRIHQLEQQVEKLRKKLKTAQQRCRRQERQLEKLKEVVHFQKEKDDVSERGYVILPNDYFEIVEVPA [H135G], with 0.152; and MVQSCSAYGCKNRYDKDKPVSFHKFPLTRPSLCKEWEAAVRRKNFKPTKYSSICSEHFTPDCFKRECNNKLLKENAVPTIFLCTEPHDKKEDLLEPQEQLPPPPLPPPVSQVDAAIGLLMPPLQTPVNLSVFCDCNYTVEDTMHQRKRIHQLEQQVEKLRKKLKTAQQRCRRQERQLEKLKEVVHFQKEKDDVSERGYVILPNDYFEIVEVPA [H135C], with 0.22.

As to MVQSCSAYGCKNRYDKDKPVSFHKFPLTRPSLCKEWEAAVRRKNFKPTKYSSICSEHFTPDCFKRECNNKLLKENAVPTIFLCTEPHDKKEDLLEPQEQLPPPPLPPPVSQVDAAIGLLMPPLQTPVNLSVFCDRNYTVEDTMHQRKRIHQLEQQVEKLRKKLKTAQQRCRRQERQLEKLKEVVHFQKEKDDVSERGYVILPNDYFEIVEVPA [H135R], the THAP1 transcriptional activity is 0.0891. Then MVQSCSAYGCKNRYDKDKPVSFHKFPLTRPSLCKEWEAAVRRKNFKPTKYSSICSEHFTPDCFKRECNNKLLKENAVPTIFLCTEPHDKKEDLLEPQEQLPPPPLPPPVSQVDAAIGLLMPPLQTPVNLSVFCDDNYTVEDTMHQRKRIHQLEQQVEKLRKKLKTAQQRCRRQERQLEKLKEVVHFQKEKDDVSERGYVILPNDYFEIVEVPA [H135D], with 0.195. Regarding MVQSCSAYGCKNRYDKDKPVSFHKFPLTRPSLCKEWEAAVRRKNFKPTKYSSICSEHFTPDCFKRECNNKLLKENAVPTIFLCTEPHDKKEDLLEPQEQLPPPPLPPPVSQVDAAIGLLMPPLQTPVNLSVFCDENYTVEDTMHQRKRIHQLEQQVEKLRKKLKTAQQRCRRQERQLEKLKEVVHFQKEKDDVSERGYVILPNDYFEIVEVPA [H135E], the THAP1 transcriptional activity is 0.396. For MVQSCSAYGCKNRYDKDKPVSFHKFPLTRPSLCKEWEAAVRRKNFKPTKYSSICSEHFTPDCFKRECNNKLLKENAVPTIFLCTEPHDKKEDLLEPQEQLPPPPLPPPVSQVDAAIGLLMPPLQTPVNLSVFCDINYTVEDTMHQRKRIHQLEQQVEKLRKKLKTAQQRCRRQERQLEKLKEVVHFQKEKDDVSERGYVILPNDYFEIVEVPA [H135I], the THAP1 transcriptional activity came out at 0.146.

Regarding MVQSCSAYGCKNRYDKDKPVSFHKFPLTRPSLCKEWEAAVRRKNFKPTKYSSICSEHFTPDCFKRECNNKLLKENAVPTIFLCTEPHDKKEDLLEPQEQLPPPPLPPPVSQVDAAIGLLMPPLQTPVNLSVFCDFNYTVEDTMHQRKRIHQLEQQVEKLRKKLKTAQQRCRRQERQLEKLKEVVHFQKEKDDVSERGYVILPNDYFEIVEVPA [H135F], the THAP1 transcriptional activity amounted to 0.196. Then MVQSCSAYGCKNRYDKDKPVSFHKFPLTRPSLCKEWEAAVRRKNFKPTKYSSICSEHFTPDCFKRECNNKLLKENAVPTIFLCTEPHDKKEDLLEPQEQLPPPPLPPPVSQVDAAIGLLMPPLQTPVNLSVFCDLNYTVEDTMHQRKRIHQLEQQVEKLRKKLKTAQQRCRRQERQLEKLKEVVHFQKEKDDVSERGYVILPNDYFEIVEVPA [H135L], with 0.0852; and MVQSCSAYGCKNRYDKDKPVSFHKFPLTRPSLCKEWEAAVRRKNFKPTKYSSICSEHFTPDCFKRECNNKLLKENAVPTIFLCTEPHDKKEDLLEPQEQLPPPPLPPPVSQVDAAIGLLMPPLQTPVNLSVFCDNNYTVEDTMHQRKRIHQLEQQVEKLRKKLKTAQQRCRRQERQLEKLKEVVHFQKEKDDVSERGYVILPNDYFEIVEVPA [H135N], with 0.183; and MVQSCSAYGCKNRYDKDKPVSFHKFPLTRPSLCKEWEAAVRRKNFKPTKYSSICSEHFTPDCFKRECNNKLLKENAVPTIFLCTEPHDKKEDLLEPQEQLPPPPLPPPVSQVDAAIGLLMPPLQTPVNLSVFCDPNYTVEDTMHQRKRIHQLEQQVEKLRKKLKTAQQRCRRQERQLEKLKEVVHFQKEKDDVSERGYVILPNDYFEIVEVPA [H135P], with 0.31. Then MVQSCSAYGCKNRYDKDKPVSFHKFPLTRPSLCKEWEAAVRRKNFKPTKYSSICSEHFTPDCFKRECNNKLLKENAVPTIFLCTEPHDKKEDLLEPQEQLPPPPLPPPVSQVDAAIGLLMPPLQTPVNLSVFCDMNYTVEDTMHQRKRIHQLEQQVEKLRKKLKTAQQRCRRQERQLEKLKEVVHFQKEKDDVSERGYVILPNDYFEIVEVPA [H135M], with 0.0946.
